Experimental findings from patent US6413750B1, “(R)-specific alcohol dehydrogenases from lactobacillus with improved catalytic activity using an NAD+ substrate” (Forschungszentrum Jülich GmbH, priority 1998, dated 2002) are described below.

By Km is commonly meant the substrate concentration at which the rate is half of its maximum. For orientation: residual activity means the activity still measured, relative to the control. Higher therefore signals much activity left.

“And” between values parts separate entries of the source, which are not always exact repeats. Equal entries are not always repeated.

Series [1] in a line: Kinetic data for the oxidized coenzyme NADP+ (oxidation of phenylethanol). The class given is biochemical, Lactobacillus brevis. The method, then: (§1) In this N-terminal sequence certain basicity-relevant amino acids were exchanged by established genetic engineering devices and the changes in the acceptance of NAD^+ were determined basically with two values, the KM value and the kcat value. The KM value (Michaelis-Menten-constant [Mol/L]) can be considered to be a measure for the affinity of the co-enzyme to the enzyme. Preferably, the KM value is as small as possible. The kcat value (Mol formed product/mol enzyme×sec) is a measure for the conversion, it should be as high as possible. A combined value, which takes both values into consideration is the quotient kcat/KM. This should be preferably≧20 for obtaining an enzyme suitable for preparative purposes.
(§2) The successive changes of the mutated enzymes were proven by the determination of the kinetic parameters for the co-enzyme NAD^+, NAPD^+, NADH and NADPH by means of the corresponding kinetic parameters for the ketone substrate (acetophenone) or, respectively, by the oxidation reaction for the alcohol (phenylethanol). Furthermore, maintenance of the enantioselectivety was examined using the example of reduction of acetophenon. In addition, temperature-optima and stability, pH optima and stability and the iso-electric point were determined and compared with the corresponding data for the non-mutated wild-type enzyme.

Series [2] is described as follows: Kinetic data for the oxidized coenzyme NAD+ (oxidation of phenylethanol). The series is classed as biochemical, Lactobacillus brevis. The conditions noted are these: for Kcat value / Km: coenzyme NAD+. As to the method: as §1, §2
Series [3] can be described thus: Kinetic data for the reduced coenzyme NADPH (reduction of acetophenone). The series is classed as biochemical, Lactobacillus brevis. The method, then: as §1, §2
A short description of series [4]: Kinetic data for the reduced coenzyme NADH (reduction of acetophenone). The series is classed as biochemical, Lactobacillus brevis. The method, then: as §1, §2
The nature of series [5]: Temperature stability (residual activity after incubation at various temperatures). The series is classed as physicochemical, Lactobacillus brevis.
Series [6] can be described thus: Isoelectric point by isoelectric focussing. The series is classed as physicochemical, Lactobacillus brevis. The conditions noted are these: pH. As to the method: The isoelectric point (IP) is determined by isoelectric focussing (IEF) to be at pH 4.28. This is noteworthy particularly in comparison with the mutant 2 (see example 4). With the mutant 2, the IP is determined at 4.65 despite the fact that, in each of the two mutants, the same type of aminoacid (lysine) was exchanged; in mutant 1, it was the lysine-45 (to isoleucine) and in mutant 2, it was the lysine-48 (to methionine).

Series [7] in a line: Batchwise reduction of acetophenone with coenzyme regeneration, enantioselectivity by gas chromatography. The class given is biochemical, Lactobacillus brevis. As to the method:
In this case, 960 μl triethanolamine buffer, 50 mM, pH 7.0 with 11 mM acetophenon, 10 μl magnesium chloride (100 mM start solution); 25 μl NADP^+ (10 mM start solution), 9.4μl isopropanol, and 1 U alcohol dehydrogenase were used.

Series [8] in a line: Temperature optimum of enzyme activity. The class given is biochemical, Lactobacillus brevis. As to the method: The optimal temperature was determined for reductive reactions at pH 7.0 with the two coenzymes NADH and NADPH to be 55° C. in both cases. The temperature stability was determined as residual activity after 25 h incubation at various temperatures. At 37° C., still 95% reactivity was obtained; at 42° C. still 34%.

A short description of series [9]: pH optimum of enzyme activity. The series is classed as biochemical, Lactobacillus brevis. The conditions noted are these: for activity at pH 8.0 compared with optimum: oxidative direction. The method, then: For determining the optimal pH value, the following buffers were used: pH 4.5=Na-acetate; pH 5.0 and 5.5=Na-acetate; pH 6.0 and 6.5=Kpi or MES; pH 7.0 and 7.5=Kpi or TEA; pH 8.0 and 8.6=Tris; pH 9.0=Bicine. All buffers were used in a concentration of 100 mM. For the determination of the reductive reaction 10 mM acetophenon was added. The concentrations of NADP/NAD were each 2 mM. The concentration of NADH/NADPH was each 0.25 mM. For measurement, 970 μl of the respective buffer solution, which already included substrate at the desired concentration, was mixed with 20 μl of the start solution with the desired co-enzyme. The reaction was started with 10 μl enzyme. the dilution factor depended on the activity, it was chosen in the range of 1 to 3 U/ml.

Series [10] in a line: pH stability (residual activity after incubation at various pH values). The class given is physicochemical, Lactobacillus brevis. The method, then:
The pH stability is expressed as residual activity after a 25 hour incubation period at various pH values, the same buffers were used as for the determination of the pH optima. 45 μl of the respective buffer were mixed with 5 μl of the enzyme solution and incubated at room temperature. Samples were taken after 30 min, 60 min., 6 hours and 25 hours.

Series [11] is described as follows: Standard enzyme test with crude extract (acetophenone reduction / phenyl ethanol oxidation). The class given is biochemical, Lactobacillus brevis. The method, then:
In the standard enzyme test for reduction of acetophenone, with NADPH 0.032 U/mg (0.318 U/ml, 9.75 mg protein/ml) and with NADH 0.47 U/mg (4.61 U/ml; 9.75 mg protein/ml) were measured. In the reverse reaction (alcohol-oxidation) with phenyl ethanol, with NAD^+ a specific activity of 1.1 U/mg (10.8 U/ml); 9.75 protein/ml) were measured.

Where [12] appears, read: oxidation of phenyl ethanol with NAD+.
The mark [13] stands for this setting: reduction of acetophenone with NADH.
Where [14] appears, read: reduction of acetophenone with NADPH.

As for “mutant 1/1: L. brevis ADH mutant with exchanges A9G, R38L, K45M (SEQ ID NO 17) (SNRLDGKVGIITGGTLGIGLAIATKFVEEGAKVMITGLHSDVGEMAAKSV; OTHER INFORMATION: mutant 1/1)”, the Kcat value in [1] came to 33.3 s⁻¹; in [2], 33.3 s⁻¹; in series [3] it was 166.4 s⁻¹; in series [4] it was 10.3 s⁻¹. In addition, the Km in [1] was 502 µM; in series [2] it was 500 µM and 502 µM; in [3], 352 µM; in series [4], 188 µM. For the same substance, in series [2] (kcat/KM NAD+ as percent of kcat/KM NADP+), the “selectivity (kcat/KM) for NAD+ in comparison with the value for NADP+” value turned out to be 100%. The residual activity in [5] (25 h incubation at 25° C.) is on record as 100%; in [5] (25 h incubation at 30° C.) it was 59%. In addition, the isoelectric point in series [6] was found to be 4.85. In series [7], the “enantioselectivity: isomer of phenylethanol formed” value is “only the (R) isomere of phenyl ethanol”.
For “mutant 2/2: L. brevis ADH mutant with exchanges A9G, R38L, H39L, K48M (SEQ ID NO 19) (SNRLDGKVGIITGGTLGIGLAIATKFVEEGAKVMITGLLSDVGEKAAMSV; OTHER INFORMATION: mutant 2/2)”, the Kcat value came to 30.8 s⁻¹ in series [1], 23.2 s⁻¹ in series [2], 101.1 s⁻¹ in [3] and 33.6 s⁻¹ in series [4]. The Km in series [1] was 143 µM; in series [2], 960 µM and 955 µM; in series [3], 370 µM; in series [4] it was ~70 µM and 70 µM. For the same substance, the “activity at 60° C. relative to optimum” value in series [8] (NADH, 60° C.) came to 70%. In addition, the “activity at 50° C. relative to optimum” value in series [8] (NADPH, measured at 50° C.) was found to be 95%. The residual activity in series [5] (storage 6 h at 30° C.) was 67%; in series [5] (storage 6 h at 37° C.), 7%; in series [10] (6 h storage at pH 7.0), 100%; in series [10] (6 h storage at pH 8.5), 58%. The “activity at pH 8.0 compared with optimum” value in [9] (NAD+) came out at 61%; in series [9] (NADP+) it was 77%. In addition, the “activity at pH 7.0 compared with optimum” value in [9] (reduction of acetophenone with NADH, pH 7.0) is reported as 6%. In series [6], the isoelectric point entry is reported as “about 4.47”. For the same substance, the “enantioselectivity: isomer of phenylethanol formed” value in series [7] is listed as “the (R) isomere of phenylethanol only”.
Turning to “mutant 2/3: L. brevis ADH mutant with exchanges A9G, G37D, R38L, K48M (SEQ ID NO 20)”, the activity in series [11] (setting [12]) was 10.8 U/ml; in [11] (oxidation of phenyl ethanol with NADP+) it was “no activity”; in series [11] (setting [13]) it was 4.61 U/ml; in series [11] (setting [14]), 0.318 U/ml. The specific activity was 1.1 U/mg in [11] (setting [12]), 0.47 U/mg in [11] (setting [13]) and 0.032 U/mg in [11] (setting [14]).
